Patent US20080102065A1 (published 2008)

Tests used:
[1] = biological target: T1, huEpoR expressed on the cell surface (UT-7 cells) (human, UniProt P19235 25-508); test: cell-based or functional assay
T1 sequence (looked up): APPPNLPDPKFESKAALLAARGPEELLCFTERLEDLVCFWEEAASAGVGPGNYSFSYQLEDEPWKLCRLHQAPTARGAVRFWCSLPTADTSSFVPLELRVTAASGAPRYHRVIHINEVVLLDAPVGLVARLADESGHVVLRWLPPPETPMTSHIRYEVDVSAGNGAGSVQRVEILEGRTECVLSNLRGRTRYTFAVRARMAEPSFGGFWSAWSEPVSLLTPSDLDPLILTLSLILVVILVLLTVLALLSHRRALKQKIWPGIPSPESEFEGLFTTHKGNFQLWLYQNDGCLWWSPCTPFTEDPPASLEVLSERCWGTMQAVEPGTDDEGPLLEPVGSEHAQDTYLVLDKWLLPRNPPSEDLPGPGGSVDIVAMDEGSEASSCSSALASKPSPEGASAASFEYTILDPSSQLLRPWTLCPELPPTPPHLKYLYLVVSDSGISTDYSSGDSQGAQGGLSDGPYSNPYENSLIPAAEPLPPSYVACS

[2] = biological target: T2, mouse EpoR (muEpoR) (mouse, UniProt P14753 25-249, limits assumed); test: ELISA on coated muEpoR, scFv-Fc at 5 µg/ml (Example 17)
T2 sequence (looked up): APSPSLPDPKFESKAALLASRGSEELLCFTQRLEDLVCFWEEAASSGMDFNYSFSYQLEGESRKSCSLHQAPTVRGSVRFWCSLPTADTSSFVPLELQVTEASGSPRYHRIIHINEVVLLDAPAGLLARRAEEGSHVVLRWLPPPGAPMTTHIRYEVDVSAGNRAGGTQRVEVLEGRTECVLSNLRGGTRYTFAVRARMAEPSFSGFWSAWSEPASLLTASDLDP

[3] = biological target: T3, huEpoR protein (soluble human erythropoietin receptor) (human, UniProt P19235 25-250, limits assumed); test: SPR, Biacore T100; scFv-Fc captured on anti-human IgG Fc CM5 chip, EpoR as analyte; 1:1 fit;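 note: measured at 25 °C in HBS-EP buffer with 0.1 mg/ml BSA, flowed at 50 µl/min, 1 min association then dissociation (10 min human, 5 min cyno EpoR)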
T3 construct: also called soluble huEpoR; biotinylated huEpoR
T3 sequence (looked up): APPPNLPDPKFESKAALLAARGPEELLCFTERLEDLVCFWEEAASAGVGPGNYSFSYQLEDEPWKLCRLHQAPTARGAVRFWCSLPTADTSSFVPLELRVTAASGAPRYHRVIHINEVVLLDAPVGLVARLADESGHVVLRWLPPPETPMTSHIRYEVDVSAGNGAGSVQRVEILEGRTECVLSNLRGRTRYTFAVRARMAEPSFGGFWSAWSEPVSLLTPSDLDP

[4] = biological target: T4, cynomolgus monkey EpoR (cynoEpoR) (cynomolgus monkey, UniProt A0A2K5WKK4 25-250); test: SPR, Biacore T100; scFv-Fc captured on anti-human IgG Fc CM5 chip, EpoR as analyte; steady-state fit; steady-state fit; cyno EpoR
T4 construct: Soluble protein (coated in ELISA, analyte in SPR)
T4 sequence: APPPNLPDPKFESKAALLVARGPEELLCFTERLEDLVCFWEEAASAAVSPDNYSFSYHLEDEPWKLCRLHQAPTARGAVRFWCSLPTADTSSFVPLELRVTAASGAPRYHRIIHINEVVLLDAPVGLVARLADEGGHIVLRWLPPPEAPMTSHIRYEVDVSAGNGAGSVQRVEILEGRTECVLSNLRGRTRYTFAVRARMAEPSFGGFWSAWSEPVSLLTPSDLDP

[5] = biological target: T5, biotinylated mouse EpoR-Fc protein (muEpoR-Fc) (mouse, UniProt P14753 25-249, limits assumed, biotinylated); test: ELISA, antibody coated at 1 µg/ml, biotinylated muEpoR-Fc at 5 µg/ml, streptavidin-HRP
T5 construct: also called mouse EpoR (muEpoR); not shown: Fc part
T5 sequence (looked up): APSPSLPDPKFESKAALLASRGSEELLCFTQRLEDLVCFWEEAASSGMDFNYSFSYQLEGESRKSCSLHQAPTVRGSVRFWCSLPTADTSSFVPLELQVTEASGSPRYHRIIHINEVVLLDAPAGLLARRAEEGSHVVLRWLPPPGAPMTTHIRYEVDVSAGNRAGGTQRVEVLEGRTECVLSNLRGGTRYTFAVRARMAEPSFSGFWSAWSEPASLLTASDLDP

B1: Mxb 34 (clone 34 scFv-Fc protein) (Fc fusion)
VH: QVQLQQSGAEVKKPGASVKVSCKASGYTFSGYYMHWVRQAPGQGLEWMGWINPNSGSTNYAQKFLGRVTMTRDTSISTAYMELSSLRSDDTAVYYCARGHSGDYFDYWGQGTLVTVSA
VL: EIVLTQSPSSLSASVGDRVTITCRASQSVSSWLAWYQQRPGQAPKLLIYAARLRGGGPSRFSGSGSGTEFTLTISSLQPEDFATYFCQQSYSTPISFGGGTKLEIK
notes: Tested as scFv-Fc (maxibody) with an Fc derived from human IgG1
Q: Which results are given for B1?
A: Average EC50 (nM), UT-7-luciferase (STAT5 reporter) assay [1]: 0.11 nM; Ratio (EC50 of Epo / EC50 of the scFv-Fc), UT-7-luciferase assay [1]: 0.088; binding result [2]: no binding (tested: 5 µg/ml); Kd [3]: 378 nM; koff [3]: 0.203 s⁻¹; kon [3]: 536000 M⁻¹ s⁻¹; Kd [4]: 5810 nM

B2: Mxb 318 (clone 318 scFv-Fc protein) (Fc fusion)
VH: QVQLVESGGGLVQPGGSLRLSCAVSGFTFSKYWMTWVRQAPGKGLEWVANIKPDGSEKYYVESVKGRFTISRDNAKNSVYLQMNSVRAEDTAVYYCARVSRGGSFSDWGQGTLVTVSS
VL: QSVLTQPPSASGSPGQSVTISCTGTSSDVGGYNYVSWYQQHPGRAPKLIIYEVSKRPSGVPDRFSGSKSGNTASLTVSGLQADDEADYYCNSYAGSIYVFGSGTKVTVL
notes: as for B1
Q: How did the “Average EC50 (nM), UT-7-luciferase (STAT5 reporter) assay” value [1] turn out when B2 was run?
A: 0.0154 nM

Q: What about the “Ratio (EC50 of Epo / EC50 of the scFv-Fc), UT-7-luciferase assay” value [1] of the same binder?
A: 0.623

Q: Does B2 bind [2]?
A: no binding (tested: 5 µg/ml)

Q: What about the Kd [3] of the same binder?
A: 847 nM

Q: What about the koff [3] of the same binder?
A: 0.558 s⁻¹

Q: What about the kon [3] of the same binder?
A: 659000 M⁻¹ s⁻¹

Q: What about the Kd [4] of the same binder?
A: 4890 nM

B3: clone 2 IgG2 protein (antibody, V domains shown)
VH: EVQLVQSGGGLVQPGGSLRLSCAASGFTFSSYWMSWVRQAPGKGLEWVANIKPDGSEKYYVDSVKGRFTISRDNAKNSVYLQMNSLRAEDTAVYYCARVSRGGSYSDWGQGTLVTVSS
VL: QSVLTQPPSASGSPGQSVTISCTGTSSDVGGYNYVSWYQQHPGKAPKLMIYEVSKRPSGVPDRFSGSKSGNTASLTVSGLQPEDEADYYCSSYAGRNWVFGGGTQLTVL
notes: Human IgG2 (VH in an IgG2 heavy chain expression vector; light chain constant type matches the variable light chain isotype); also called IgG2 2; IgG22
Q: Does B3 bind [5]?
A: binds

B4: clone 5 IgG2 protein (antibody, V domains shown)
VH: EVQLVESGGGLVQPGGSLRLSCAASGFTFSSYWMSWVRQAPGKGLEWVANIKPDGSEKYYVDSVKGRFTISRDNAKNSVYLQMNSLRAEDTAVYYCARVSRGGSYSDWGQGTLVTVSS
VL: QSALTQPASVSGSPGQSITISCTGTSSDVGGYIYVSWYQQHPGKAPKLMIYDVSRRPSGISDRFSGSKSGNTASLTISGLQAEDEADYYCNSYTTLSTWLFGGGTKVTVL
notes: Human IgG2 (VH in an IgG2 heavy chain expression vector; light chain constant type matches the variable light chain isotype); also called IgG2 5; IgG25
Q: Does B4 bind [5]?
A: binds

B5: clone 7 IgG2 protein (antibody, V domains shown)
VH: EVQLVQSGGGLVQPGGSLRLSCAASGFTFSSYWMSWVRQAPGKGLEWVANIKPDGSEKYYVDSVKGRFTISRDNAKNSVYLQMNSLRAEDTAVYYCARVSRGGSYSDWGKGTLVTVSS
VL: QSALTQPASVSGSPGQSIIISCTGTRSDIGGYNYVSWYQHHPGRAPKLIIFDVNNRPSGVSHRFSGSKSGNTASLTISGLQAEDEADYYCNSFTDSRTWLFGGGTKLTVL
notes: Human IgG2 (VH in an IgG2 heavy chain expression vector; light chain constant type matches the variable light chain isotype)
Q: Does B5 bind [5]?
A: binds

B6: clone 10 IgG2 protein (antibody, V domains shown)
VH: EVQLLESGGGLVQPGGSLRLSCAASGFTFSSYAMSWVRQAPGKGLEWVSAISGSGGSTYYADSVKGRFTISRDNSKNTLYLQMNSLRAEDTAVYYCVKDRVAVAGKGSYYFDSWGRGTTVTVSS
VL: QSVLTQPPSVSEAPGQRVTIACSGSSSNIGNNAVSWYQQLPGKAPTLLIYYDNLLPSGVSDRFSGSKSGTSASLAISGLQSEDEADYYCAAWDDSLNDWVFGGGTKVTVL
notes: as for B5
Q: Does B6 bind [5]?
A: binds

B7: clone 30 IgG2 protein (antibody, V domains shown)
VH: QVQLQESGPGLVKPSQTLSLTCAISGDSVSSNSAAWNWIRQSPSRGLEWLGRTYYRSKWYNDYAVSVKSRMTIKADTSKNQFSLQLNSVTPEDTAVYYCARDEGPLDYWGQGTLVTVSA
VL: QAVLTQPSSVSGAPGQRVTISCTGSSSNLGTGYDVHWYQQLPGTAPKLLIYGNSNRPSGVPDRFSGSKSDTSGLLAITGLQAEDEATYYCQSYDFSLSAMVFGGGTKVTVL
notes: as for B5
Q: Does B7 bind [5]?
A: binds
